According to article PMC4144708 (Biochemistry, 2014):

How the values were obtained:
[1] = substrate: [H][C@@]12COP(=O)(O)O[C@@]1([H])[C@@H](O)[C@H](n1cnc3c(=O)[nH]c(N)nc31)O2; test: [3H]cGMP hydrolysis, scintillation counting, Michaelis-Menten fit; format: biochemical, Saccharomyces cerevisiae; conditions: 50 mM Tris-HCl pH 7.5, room temperature, no added ion, labelled compound
SEC = biological target: the molecule itself; test: SEC

B1: yeast phosphodiesterase-1 (yPDE1), full length (residues 1-369) (enzyme, Saccharomyces cerevisiae, UniProt P22434 1-369, looked up)
chain: MVVFEITILGANGGPTEYGTQCFILKPARTEDPELIAVDGGAGMYQLREMLVQGRNENEGDDELVPSFYEHDREPIEFFIDSKLNIQKGLSKSLLQSLKRQGEHFESANTMKKTYEVFQGITDYYITHPHLDHISGLVVNSPSIYEQENSKKKTIWGLPHTIDVLQKHVFNDLIWPDLTAERSRKLKLKCLNPKEVQKCTIFPWDVIPFKVHHGIGVKTGAPVYSTFYIFRDRKSKDCIIVCGDVEQDRRESEESLLEEFWSYVAENIPLVHLKGILVECSCPLSSKPEQLYGHLSPIYLINELSNLNTLYNSSKGLSGLNVIVTHVKSTPAKRDPRLTILEELRFLAEERNLGDLRISIALEGHTLFL
- Km [1]: 104.7 ± 10.2 µM
- kcat [1]: 11.8 ± 1 s⁻¹
- kcat/Km [1]: 113000 M⁻¹ s⁻¹
- stoichiometry N (SEC): 2
